Reference: IntAct's records for PubMed 31515488

B1: Keratin-associated protein 3-2 (Homo sapiens), Q9BYR7 (parent)
chain: MDCCASRSCSVPTGPATTICSSDKSCRCGVCLPSTCPHTVWLLEPICCDNCPPPCHIPQPCVPTCFLLNSCQPTPGLETLNLTTFTQPCCEPCLPRGC
B2: Fructose-1,6-bisphosphatase isozyme 2 (Homo sapiens), O00757 (parent)
chain: MTDRSPFETDMLTLTRYVMEKGRQAKGTGELTQLLNSMLTAIKAISSAVRKAGLAHLYGIAGSVNVTGDEVKKLDVLSNSLVINMVQSSYSTCVLVSEENKDAIITAKEKRGKYVVCFDPLDGSSNIDCLASIGTIFAIYRKTSEDEPSEKDALQCGRNIVAAGYALYGSATLVALSTGQGVDLFMLDPALGEFVLVEKDVKIKKKGKIYSLNEGYAKYFDAATTEYVQKKKFPEDGSAPYGARYVGSMVADVHRTLVYGGIFLYPANQKSPKGKLRLLYECNPVAYIIEQAGGLATTGTQPVLDVKPEAIHQRVPLILGSPEDVQEYLTCVQKNQAGS
B3: Tuftelin-interacting protein 11 (Homo sapiens), Q9UBB9 (parent)
chain: MSLSHLYRDGEGRIDDDDDERENFEITDWDLQNEFNPNRQRHWQTKEEATYGVWAERDSDDERPSFGGKRARDYSAPVNFISAGLKKGAAEEAELEDSDDEEKPVKQDDFPKDFGPRKLKTGGNFKPSQKGFAGGTKSFMDFGSWERHTKGIGQKLLQKMGYVPGRGLGKNAQGIINPIEAKQRKGKGAVGAYGSERTTQSMQDFPVVDSEEEAEEEFQKELSQWRKDPSGSKKKPKYSYKTVEELKAKGRISKKLTAPQKELSQVKVIDMTGREQKVYYSYSQISHKHNVPDDGLPLQSQQLPQSGKEAKAPGFALPELEHNLQLLIDLTEQEIIQNDRQLQYERDMVVNLFHELEKMTEVLDHEERVISNLSKVLEMVEECERRMQPDCSNPLTLDECARIFETLQDKYYEEYRMSDRVDLAVAIVYPLMKEYFKEWDPLKDCTYGTEIISKWKSLLENDQLLSHGGQDLSADAFHRLIWEVWMPFVRNIVTQWQPRNCDPMVDFLDSWVHIIPVWILDNILDQLIFPKLQKEVENWNPLTDTVPIHSWIHPWLPLMQARLEPLYSPIRSKLSSALQKWHPSDSSAKLILQPWKDVFTPGSWEAFMVKNIVPKLGMCLGELVINPHQQHMDAFYWVIDWEGMISVSSLVGLLEKHFFPKWLQVLCSWLSNSPNYEEITKWYLGWKSMFSDQVLAHPSVKDKFNEALDIMNRAVSSNVGAYMQPGARENIAYLTHTERRKDFQYEAMQERREAENMAQRGIGVAASSVPMNFKDLIETKAEEHNIVFMPVIGKRHEGKQLYTFGRIVIYIDRGVVFVQGEKTWVPTSLQSLIDMAK
partner: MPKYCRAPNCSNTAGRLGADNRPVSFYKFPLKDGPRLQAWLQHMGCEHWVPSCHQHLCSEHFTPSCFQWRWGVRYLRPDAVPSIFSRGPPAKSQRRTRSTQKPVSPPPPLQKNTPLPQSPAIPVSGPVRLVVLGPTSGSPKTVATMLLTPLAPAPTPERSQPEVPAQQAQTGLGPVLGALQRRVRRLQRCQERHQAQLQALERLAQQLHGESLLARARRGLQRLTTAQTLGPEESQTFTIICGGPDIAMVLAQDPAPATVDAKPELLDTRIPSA
B4: Four and a half LIM domains protein 2 (Homo sapiens), Q14192 (parent)
chain: MTERFDCHHCNESLFGKKYILREESPYCVVCFETLFANTCEECGKPIGCDCKDLSYKDRHWHEACFHCSQCRNSLVDKPFAAKEDQLLCTDCYSNEYSSKCQECKKTIMPGTRKMEYKGSSWHETCFICHRCQQPIGTKSFIPKDNQNFCVPCYEKQHAMQCVQCKKPITTGGVTYREQPWHKECFVCTACRKQLSGQRFTARDDFAYCLNCFCDLYAKKCAGCTNPISGLGGTKYISFEERQWHNDCFNCKKCSLSLVGRGFLTERDDILCPDCGKDI
partner: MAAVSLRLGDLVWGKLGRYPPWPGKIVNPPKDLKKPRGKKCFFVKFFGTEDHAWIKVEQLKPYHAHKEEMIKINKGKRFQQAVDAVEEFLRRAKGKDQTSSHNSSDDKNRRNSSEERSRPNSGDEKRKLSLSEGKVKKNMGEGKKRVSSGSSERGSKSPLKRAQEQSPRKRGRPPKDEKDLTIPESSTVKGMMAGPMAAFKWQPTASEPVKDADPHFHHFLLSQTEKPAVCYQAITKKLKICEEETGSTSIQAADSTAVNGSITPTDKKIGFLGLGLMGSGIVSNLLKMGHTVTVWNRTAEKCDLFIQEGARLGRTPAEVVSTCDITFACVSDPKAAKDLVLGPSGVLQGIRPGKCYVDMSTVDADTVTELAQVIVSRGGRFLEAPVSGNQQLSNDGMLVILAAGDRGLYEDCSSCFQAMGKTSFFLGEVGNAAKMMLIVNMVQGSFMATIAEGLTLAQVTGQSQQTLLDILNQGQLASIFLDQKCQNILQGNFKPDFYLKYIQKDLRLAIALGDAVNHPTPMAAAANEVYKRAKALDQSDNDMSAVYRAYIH
B5: Proteasome subunit beta type-1 (Homo sapiens), P20618 (parent)
chain: MLSSTAMYSAPGRDLGMEPHRAAGPLQLRFSPYVFNGGTILAIAGEDFAIVASDTRLSEGFSIHTRDSPKCYKLTDKTVIGCSGFHGDCLTLTKIIEARLKMYKHSNNKAMTTGAIAAMLSTILYSRRFFPYYVYNIIGGLDEEGKGAVYSFDPVGSYQRDSFKAGGSASAMLQPLLDNQVGFKNMQNVEHVPLSLDRAMRLVKDVFISAAERDVYTGDALRICIVTKEGIREETVSLRKD
partner: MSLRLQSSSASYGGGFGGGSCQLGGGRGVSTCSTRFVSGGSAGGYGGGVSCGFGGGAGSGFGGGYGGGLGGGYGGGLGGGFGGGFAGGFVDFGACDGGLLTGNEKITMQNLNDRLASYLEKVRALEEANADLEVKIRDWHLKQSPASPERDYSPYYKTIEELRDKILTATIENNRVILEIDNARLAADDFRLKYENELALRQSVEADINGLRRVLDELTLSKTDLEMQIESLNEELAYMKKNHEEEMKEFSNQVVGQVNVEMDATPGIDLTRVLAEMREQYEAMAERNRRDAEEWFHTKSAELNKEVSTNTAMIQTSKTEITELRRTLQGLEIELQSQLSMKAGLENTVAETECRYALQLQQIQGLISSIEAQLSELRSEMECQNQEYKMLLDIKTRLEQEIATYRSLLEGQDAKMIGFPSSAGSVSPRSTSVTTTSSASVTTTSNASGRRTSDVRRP

Variants of: B1
Conditions: with yipf3_human YIPF3, Q9GZM5
Chain of yipf3_human YIPF3, Q9GZM5 (Q9GZM5 whole entry): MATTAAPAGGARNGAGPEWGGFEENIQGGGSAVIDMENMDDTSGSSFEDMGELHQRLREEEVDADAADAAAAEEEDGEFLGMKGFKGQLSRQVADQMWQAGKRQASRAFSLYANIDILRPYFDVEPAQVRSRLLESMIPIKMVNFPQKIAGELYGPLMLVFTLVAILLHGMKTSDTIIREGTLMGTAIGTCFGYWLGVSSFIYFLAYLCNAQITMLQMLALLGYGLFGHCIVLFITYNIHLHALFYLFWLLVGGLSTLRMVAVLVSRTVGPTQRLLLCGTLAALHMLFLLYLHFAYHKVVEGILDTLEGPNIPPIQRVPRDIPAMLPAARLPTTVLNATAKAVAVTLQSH

effect of a mutation on the interaction	Variant
with no effect	R27C
with no effect	S8G

Variants of: B1
Conditions: with hxa1_human HOXA1, P49639
Chain of hxa1_human HOXA1, P49639 (P49639 whole entry): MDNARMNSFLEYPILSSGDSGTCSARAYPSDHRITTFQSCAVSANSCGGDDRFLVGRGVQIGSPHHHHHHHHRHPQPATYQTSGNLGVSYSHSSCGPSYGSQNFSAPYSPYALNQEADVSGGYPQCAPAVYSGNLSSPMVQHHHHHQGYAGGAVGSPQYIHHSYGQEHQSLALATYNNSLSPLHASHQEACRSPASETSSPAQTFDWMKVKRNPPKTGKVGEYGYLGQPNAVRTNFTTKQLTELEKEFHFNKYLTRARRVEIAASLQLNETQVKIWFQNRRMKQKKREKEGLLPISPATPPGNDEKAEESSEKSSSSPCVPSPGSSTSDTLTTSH

effect of a mutation on the interaction	Variant
with no effect	R27C
with no effect	S8G

Variants of: B1
Conditions: with otx1_human OTX1, P32242
Chain of otx1_human OTX1, P32242 (P32242 whole entry): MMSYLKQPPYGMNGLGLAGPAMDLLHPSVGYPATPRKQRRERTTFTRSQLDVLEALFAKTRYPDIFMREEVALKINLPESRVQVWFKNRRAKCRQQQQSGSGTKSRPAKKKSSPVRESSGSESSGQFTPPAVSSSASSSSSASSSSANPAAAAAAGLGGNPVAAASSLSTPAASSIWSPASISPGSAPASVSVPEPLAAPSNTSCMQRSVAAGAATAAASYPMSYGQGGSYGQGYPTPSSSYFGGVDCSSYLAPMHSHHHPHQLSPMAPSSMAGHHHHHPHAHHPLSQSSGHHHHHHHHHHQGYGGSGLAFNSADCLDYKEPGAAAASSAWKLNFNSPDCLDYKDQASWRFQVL

effect of a mutation on the interaction	Variant
with no effect	R27C
with no effect	S8G

Variants of: B2
Conditions: with FBP1, P09467
Chain of FBP1, P09467 (P09467 whole entry): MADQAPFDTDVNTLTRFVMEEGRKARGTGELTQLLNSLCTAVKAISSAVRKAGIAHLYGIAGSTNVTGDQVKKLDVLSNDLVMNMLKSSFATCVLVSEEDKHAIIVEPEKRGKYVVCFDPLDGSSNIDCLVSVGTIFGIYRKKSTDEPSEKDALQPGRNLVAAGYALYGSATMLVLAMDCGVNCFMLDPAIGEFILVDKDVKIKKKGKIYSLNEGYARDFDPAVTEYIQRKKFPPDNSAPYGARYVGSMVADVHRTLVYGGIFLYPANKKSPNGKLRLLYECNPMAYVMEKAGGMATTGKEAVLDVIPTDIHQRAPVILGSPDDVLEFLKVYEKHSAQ

effect of a mutation on the interaction	Variant
with no effect	Y216C

Variants of: B3
Conditions: with thap8_human THAP8, Q8NA92

effect of a mutation on the interaction	Variant
with no effect	R8Q
with no effect	S688L

Variants of: B4
Conditions: with glyr1_human GLYR1, Q49A26

effect of a mutation on the interaction	Variant
with no effect	N95K
with no effect	A37S

Variants of: B5
Conditions: with KRT13, P13646

effect of a mutation on the interaction	Variant
with no effect	P11A
